{"source": "patent US12397037B2", "about": "“Methods and compositions for immunomodulation” (CHILDREN'S MEDICAL CENTER CORPORATION, priority 2014, dated 2025)", "molecules": {"B1": {"name": "SEMA3F: Human recombinant full-length His-Myc-tagged SEMA3F, secreted by transfected 293T cells and purified; class 3 semaphorin, NRP-2 ligand (protein, listed as Homo sapiens)", "chain": "MLVAGLLLWASLLTGAWPSFPTQDHLPATPRVRLSFKELKATGTAHFFNFLLNTTDYRILLKDEDHDRMYVGSKDYVLSLDLHDINREPLIIHWAASPQRIEECVLSGKDVNGECGNFVRLIQPWNRTHLYVCGTGAYNPMCTYVNRGRRAQATPWTQTQAVRGRGSRATDGALRPMPTAPRQDYIFYLEPERLESGKGKCPYDPKLDTASALINEELYAGVYIDFMGTDAAIFRTLGKQTAMRTDQYNSRWLNDPSFIHAELIPDSAERNDDKLYFFFRERSAEAPQSPAVYARIGRICLNDDGGHCCLVNKWSTFLKARLVCSVPGEDGIETHFDELQDVFVQQTQDVRNPVIYAVFTSSGSVFRGSAVCVYSMADIRMVFNGPFAHKEGPNYQWMPFSGKMPYPRPGTCPGGTFTPSMKSTKDYPDEVINFMRSHPLMYQAVYPLQRRPLVVRTGAPYRLTTIAVDQVDAADGRYEVLFLGTDRGTVQKVIVLPKDDQELEELMLEEVEVFKDPAPVKTMTISSKRQQLYVASAVGVTHLSLHRCQAYGAACADCCLARDPYCAWDGQACSRYTASSKRRSRRQDVRHGNPIRQCRGFNSNANKNAVESVQYGVAGSAAFLECQPRSPQATVKWLFQRDPGDRRREIRAEDRFLRTEQGLLLRALQLSDRGLYSCTATENNFKHVVTRVQLHVLGRDAVHAALFPPLSMSAPPPPGAGPPTPPYQELAQLLAQPEVGLIHQYCQGYWRHVPPSPREAPGAPRSPEPQDQKKPRNRRHHPPDT", "modifications": "His-Myc tag", "notes": "Human recombinant full-length His-Myc-tagged SEMA3F, secreted by transfected 293T cells and purified; class 3 semaphorin, NRP-2 ligand"}}, "key": {"[1]": {"test_system": "U87MG cells", "conditions": "U87MG cells within 24 hours; reference 6; cited from earlier work"}, "[2]": {"test_system": "C57BL/6 recipients of fully mismatched BALB/c cardiac allografts", "assay": "Fully MHC mismatched cardiac allograft survival (BALB/c into C57BL/6)", "type": "in vivo, mice", "conditions": "for mean graft survival: untreated controls 6.5 days", "description": "FIG. 2 depicts graft survival curves. Cardiac allografts (Balb/c) were transplanted into fully MHC mismatched recipients (C57BL/6). Unmanipulated recipients reject these allografts within 7-8 days.\nFIG. 3 depicts graft survival curves. Cardiac allografts (Balb/c) were transplanted into fully MHC mismatched recipients (C57BL/6). Unmanipulated recipients reject these allografts within 7-8 days.\nFIG. 4 depicts graft survival curves of C56BL6 recipient mice after transplantation with Balb/C donor hearts.\nDescribed herein is the treatment of C57BL/6 recipients of fully mismatched BALB/c cardiac allografts with Sema3F.\nBa1b/C donor hearts were transplanted into C56BL6 mice."}, "[3]": {"test_system": "VEGF", "assay": "VEGF protein in conditioned media by ELISA, U87MG cells", "type": "cell-based, human", "conditions": "SEMA3F, rapamycin 10 nM or Torin 1 10 nM, 30 minutes prior to DFO, supernatants after 18 hours", "experimental": "In each panel data are representative of 3 independent experiments. Bar graphs represent the mean±SD of n=3 experiments performed in triplicate, *, p<0.01 vs. control.\nFinally, the effect of SEMA3F on the secretion of VEGF into conditioned media (by ELISA) was determined in the absence or presence of DFO.\nThe VEGF-A (DVE00) ELISA kit was obtained from R&D Systems (Minneapolis, MN). […] Desferrioxamine (DFO) was purchased from Sigma-Aldrich, and the MEK inhibitor (U0126) was purchased from EMD-Millipore (Billerica, MA). pGL4.74 [hRluc/TK] vector (Promega Madison, WI) was used as an internal control in luciferase assay."}, "[4]": {"test_system": "RhoA", "assay": "RhoA activity, rhotekin pull-down, U87MG cells", "type": "cell-based, human", "conditions": "SEMA3F 640 ng/ml, 10 minutes", "description": "FIG. 30A depicts U87MG cells treated with SEMA3F (640 ng/ml), rapamycin (10 nM) or Torin 1 (10 nM) for 30 minutes. Subsequently, cells were stained with Alexa Fluor 488 phalloidin and Hoechst 33342 to identify F-actin cytoskeleton stress fibers and cellular nuclei, respectively. […] The scale bar indicates 20 μm. FIG. 30B depicts U87MG cells transiently transfected with a pcDNA3.1 empty vector or with a wild type (WT) mTOR plasmid and after 18 hours treated with SEMA3F (640 ng/ml) for 30 minutes. Cells were stained as described above in FIG. 30A. Representative cellular staining is shown; bar graph represents the number of fibers/cell (mean±SD) from 3 independent experiments. FIG. 30C depicts U87MG cells transfected with control siRNA or with raptor- or rictor-specific siRNAs (20 nM). […] The number of stress fibers was evaluated in 3 independent experiments and shown as the mean±SD. […] After 18 hours, the cells were treated with SEMA3F (640 ng/ml) for 10 minutes and RhoA activity was evaluated. FIG. 30E depicts U87MG cells transfected with control siRNA or with raptor- or rictor-specific siRNAs (20 nM), were treated with SEMA3F (640 ng/ml) for 10 minutes and RhoA activity was analyzed. […]\nRhoA activity (39) was measured using the rhotekin pulldown assay in U87MG cells transfected with the mTOR overexpression construct (FIG. 30D). […]"}, "[5]": {"test_system": "Jurkat T cells", "assay": "Western blot of pAkt (S473) in NRP-2-expressing Jurkat T cells", "type": "cell-based, human", "conditions": "30 min", "description": "FIG. 20 depicts the results of Western blots of NRP-2-expressing Jurkat T cells treated with increasing concentrations of SEMA3F for 30 min. Expression of pAkt (S473) was evaluated by Western blot.\nIn addition, as illustrated in FIG. 20 NRP-2-expressing Jurkat T cells were treated with increasing concentrations of SEMA3F for 30 min. and expression of pAkt (S473) was evaluated by Western blot. Expression is reduced following treatment with high concentrations of SEMA3F (>600 ng/ml)\nWestern blotting: Proteins within each sample were separated by SDS-PAGE and transferred to nitrocellulose membranes. The membranes were blocked with 4% skimmed milk in TBS-T (0.1% Tween 20 in tris-buffered saline [TBS]) for 30 minutes, followed by incubation with the primary antibody. After washing with TBS-T, membranes were incubated with the appropriate horseradish peroxidase-conjugated secondary antibody, and immunoreactivity was detected by using ECL detection reagents."}, "[6]": {"test_system": "U87MG cells", "assay": "F-actin stress fiber staining (phalloidin) in U87MG cells", "type": "cell-based, human", "description": "FIG. 30A depicts U87MG cells treated with SEMA3F (640 ng/ml), rapamycin (10 nM) or Torin 1 (10 nM) for 30 minutes. Subsequently, cells were stained with Alexa Fluor 488 phalloidin and Hoechst 33342 to identify F-actin cytoskeleton stress fibers and cellular nuclei, respectively. […] The scale bar indicates 20 μm. FIG. 30B depicts U87MG cells transiently transfected with a pcDNA3.1 empty vector or with a wild type (WT) mTOR plasmid and after 18 hours treated with SEMA3F (640 ng/ml) for 30 minutes. Cells were stained as described above in FIG. 30A. Representative cellular staining is shown; bar graph represents the number of fibers/cell (mean±SD) from 3 independent experiments. FIG. 30C depicts U87MG cells transfected with control siRNA or with raptor- or rictor-specific siRNAs (20 nM). After 48 hours, they were treated with SEMA3F for 30 minutes and stained with Alexa Fluor 488 phalloidin and Hoechst 33342 as above. The number of stress fibers was evaluated in 3 independent experiments and shown as the mean±SD. FIG. 30D depicts U87MG cells transiently transfected with pcDNA3.1 empty vector or with our WT mTOR plasmid. After 18 hours, the cells were treated with SEMA3F (640 ng/ml) for 10 minutes and RhoA activity was evaluated. FIG. 30E depicts U87MG cells transfected with control siRNA or with raptor- or rictor-specific siRNAs (20 nM), were treated with SEMA3F (640 ng/ml) for 10 minutes and RhoA activity was analyzed. In FIGS. 30D-30E, the intensity of active RhoA was normalized to respective total RhoA; the numbers below each gel lane represent the fold-change in intensity relative to control. FIGS. 30D-30E are representative of 3 independent experiments.\nmTORC2 links SEMA3F biology with the F-actin cytoskeleton. It was next determined whether the inhibition of mTORC2 serves as an intermediary response to link SEMA3F activity with cytoskeletal collapse. U87MG cells were treated either with SEMA3F (640 ng/ml), rapamycin (10 nM) or Torin 1 (10 nM) for 30 minutes and the actin cytoskeleton was visualized using phalloidin staining. […] These findings indicate that SEMA3F has minimal direct effects on mTORC1.\nF-actin staining: Cells were fixed with 4% paraformaldehyde (PFA) followed by permeabilization with 0.2% Triton X-100 in PBS. F-actin and nuclei were stained with Alexa Fluor 488 phalloidin and Hoechst 33342, respectively. Confocal images from 3-5 areas of each culture were reviewed and stress fibers were counted in representative individual cells (˜5/experiment) using standard methodology as described6."}}}
{"molecule": "B1", "values": [{"measurement": "apoptosis", "setting": "[1]", "result": "does not induce apoptosis"}, {"measurement": "rejection in NRP-2KO mice", "setting": "[2]; NRP-2KO recipients", "result": "can inhibit rejection"}, {"measurement": "mean graft survival", "setting": "[2]; Sema3F administered via adenovirus, n=4 mice", "result": "> 22", "unit": "days"}, {"measurement": "mean graft survival", "setting": "[2]; Sema3F administered via i.p. injection, n=16 mice", "result": 23.4, "unit": "days"}, {"measurement": "CD3, CD4, CD8 and Treg populations by FACS", "setting": "[2]; day 5 post transplantation, mice of FIG. 2 (adenovirus)", "result": "no differences are observed"}, {"measurement": "DFO-induced VEGF protein secretion", "setting": "[3]", "result": "significantly reduced"}, {"measurement": "RhoA activity partially rescued (by)", "setting": "[4]; U87MG cells overexpressing mTOR", "result": 55, "unit": "%"}, {"measurement": "suppression of RhoA activity", "setting": "[4]; control pcDNA3.1-transfected U87MG cells", "result": 88, "unit": "%"}, {"measurement": "concentration of SEMA3F at which expression of pAkt (S473) is reduced", "setting": "[5]", "result": "> 600", "unit": "ng/ml"}, {"measurement": "stress fiber formation in mTOR overexpressing cells", "setting": "[6]; U87MG cells transfected with mTOR overexpression construct, SEMA3F 640 ng/ml, 30 minutes", "result": "minimal effects on stress fiber formation"}, {"measurement": "stress fiber formation and cytoskeletal arrangement", "setting": "[6]; U87MG cells, SEMA3F 640 ng/ml, rapamycin 10 nM or Torin 1 10 nM, 30 minutes, vs untreated", "result": "markedly inhibits stress fiber formation and cytoskeletal arrangement"}, {"measurement": "stress fiber formation in raptor-siRNA treated cells", "setting": "[6]; U87MG cells, siRNA 20 nM, SEMA3F 30 minutes", "result": "reduced stress fiber formation"}, {"measurement": "inhibition of stress fiber formation", "setting": "[6]; pcDNA3.1 control vector transfected U87MG cells, SEMA3F 640 ng/ml, 30 minutes", "result": 90, "unit": "%"}]}
